In IntAct's records for PubMed 28017832:

B1: Vacuolar protein sorting-associated protein 33B (Homo sapiens), Q9H267 (parent)
chain: MAFPHRPDAPELPDFSMLKRLARDQLIYLLEQLPGKKDLFIEADLMSPLDRIANVSILKQHEVDKLYKVENKPALSSNEQLCFLVRPRIKNMRYIASLVNADKLAGRTRKYKVIFSPQKFYACEMVLEEEGIYGDVSCDEWAFSLLPLDVDLLSMELPEFFRDYFLEGDQRWINTVAQALHLLSTLYGPFPNCYGIGRCAKMAYELWRNLEEEEDGETKGRRPEIGHIFLLDRDVDFVTALCSQVVYEGLVDDTFRIKCGSVDFGPEVTSSDKSLKVLLNAEDKVFNEIRNEHFSNVFGFLSQKARNLQAQYDRRRGMDIKQMKNFVSQELKGLKQEHRLLSLHIGACESIMKKKTKQDFQELIKTEHALLEGFNIRESTSYIEEHIDRQVSPIESLRLMCLLSITENGLIPKDYRSLKTQYLQSYGPEHLLTFSNLRRAGLLTEQAPGDTLTAVESKVSKLVTDKAAGKITDAFSSLAKRSNFRAISKKLNLIPRVDGEYDLKVPRDMAYVFGGAYVPLSCRIIEQVLERRSWQGLDEVVRLLNCSDFAFTDMTKEDKASSESLRLILVVFLGGCTFSEISALRFLGREKGYRFIFLTTAVTNSARLMEAMSEVKA
partner: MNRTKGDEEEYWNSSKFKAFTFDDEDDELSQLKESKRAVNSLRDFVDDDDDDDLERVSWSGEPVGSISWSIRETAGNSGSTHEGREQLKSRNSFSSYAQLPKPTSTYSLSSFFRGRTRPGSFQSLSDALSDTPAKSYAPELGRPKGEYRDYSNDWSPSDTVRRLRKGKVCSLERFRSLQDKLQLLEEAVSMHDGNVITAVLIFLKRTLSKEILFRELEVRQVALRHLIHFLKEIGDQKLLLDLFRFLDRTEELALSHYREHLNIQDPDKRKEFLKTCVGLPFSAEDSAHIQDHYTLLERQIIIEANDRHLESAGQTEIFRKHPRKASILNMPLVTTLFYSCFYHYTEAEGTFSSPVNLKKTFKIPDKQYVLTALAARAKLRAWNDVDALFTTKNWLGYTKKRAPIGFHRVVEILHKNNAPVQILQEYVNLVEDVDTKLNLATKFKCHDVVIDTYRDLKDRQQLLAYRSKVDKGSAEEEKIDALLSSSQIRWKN

Variants of: B1
Conditions: with spe39_human VIPAS39, Q9H9C1

Variant	effect of a mutation on the interaction
G131E	decreasing interaction strength
